Results published in US20210300999A1.

Columns and labels:
[1] = target: SARS-CoV S2Pecto (SARS-CoV) (UniProt P59594); assay: ELISA on coated antigen
[2] = target: recombinant receptor binding domain (RBD) of SARS-CoV-2 spike protein, residues 319-528, deglycosylated (SARS-CoV-2) (UniProt P0DTC2); assay: crystal structure RBD/COV2-2196/COV2-2130
[3] = target: recombinant receptor binding domain (RBD) of SARS-CoV-2 spike protein, residues 319-528, deglycosylated (SARS-CoV-2) (UniProt P0DTC2); assay: crystal structure RBD/COV2-2196

Chain of COV2-2196 Fab (recombinant, wt sequence) (VH): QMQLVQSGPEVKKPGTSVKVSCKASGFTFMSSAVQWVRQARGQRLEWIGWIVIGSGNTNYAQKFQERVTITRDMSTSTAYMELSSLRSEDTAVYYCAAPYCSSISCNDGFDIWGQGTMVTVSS
Chain of COV2-2196 Fab (recombinant, wt sequence) (VL): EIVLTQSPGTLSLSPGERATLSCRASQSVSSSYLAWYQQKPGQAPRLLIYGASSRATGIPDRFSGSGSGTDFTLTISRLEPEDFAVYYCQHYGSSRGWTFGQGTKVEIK

Substance | EC50 [1] | also measured
rCR3022 (recombinant form of the cross-reactive SARS-CoV SRBD mAb CR3022) (antibody) | 5.2 ng/mL | –
COV2-2094 (antibody) | 11.7 ng/mL | –
COV2-2196 Fab (recombinant, first two amino acids of the variable region mutated from QM to EV) | – | buried surface area of the interface [2]: 650 Å^2
COV2-2196 Fab (recombinant, wt sequence) | – | buried surface area of the interface [3]: 650 Å^2
